Reference: paper PMC12339479
pKd: −log10 of the molar value.

Each substance was assayed against Chicken ACE2-hFc (soluble chicken ACE2 residues 18-740 fused to human IgG1 Fc) (chicken (Gallus gallus)) (assay: SPR).

Substance	pKd	kon [M⁻¹ s⁻¹]
SARS-CoV-2 Omicron BA.2 RBD monomer (from UniProt P0DTC2) (domain or fragment)	6.48	258000
SARS-CoV-2 Gamma (P.1) RBD monomer (from UniProt P0DTC2) (domain or fragment)	4.35	4200
SARS-CoV-2 Omicron BA.5 RBD monomer (from UniProt P0DTC2) (domain or fragment)	6.43	–
SARS-CoV-2 Alpha (B.1.1.7) RBD monomer (from UniProt P0DTC2) (domain or fragment)	3.39	300
